The data set deals with Escherichia coli TOP10. The data set can be described thus: shrunken log2 fold change of peptide-encoding DNA abundance (4.5 h post-induction vs induction); higher = less antimicrobial activity (less host growth inhibition). The following applies: time post-induction: 4.5 h; library: site-saturation at positions 5, 18, 19, 20.

We go through 91 sequences from the supplement of paper PMC9112550, “Optimization of the antimicrobial peptide Bac7 by deep mutational scanning” (BMC Biology, 2022).
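Also: peptides expressed intracellularly from a pBAD plasmid library in pooled LB shake-flask culture, induced with 0.3% L-arabinose, DNA abundance read by NGS, three biological replicates, DESeq2 with apeglm shrinkage.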

For the sequence RRIRRRPPRLPRPRPRPSEFPRP, the “shrunken log2 fold change” value amounted to 0.00596. As to RRIRPRPPRLPRPRPRPHVLPRP, the “shrunken log2 fold change” value is -0.0256. With RRIRFRPPRLPRPRPRPCASPRP the figure was -0.315; with RRIRFRPPRLPRPRPRPDQRPRP, -0.325; with RRIRDRPPRLPRPRPRPLLLPRP, 0.468. With RRIRERPPRLPRPRPRPWPTPRP the figure was 0.549; with RRIRCRPPRLPRPRPRPSGLPRP, 0.0264. With RRIRRRPPRLPRPRPRPMMNPRP the figure was 0.00643; with RRIRVRPPRLPRPRPRPTAFPRP, 0.0786. With RRIRLRPPRLPRPRPRPAIRPRP, the “shrunken log2 fold change” value was -0.111. For the sequence RRIRLRPPRLPRPRPRPVASPRP, the “shrunken log2 fold change” value was -0.0255. With RRIRQRPPRLPRPRPRPRDHPRP the figure was 0.423; with RRIRTRPPRLPRPRPRPGAMPRP, 0.144; with RRIRLRPPRLPRPRPRPDYAPRP, -0.224. As for RRIRWRPPRLPRPRPRPLIGPRP, the “shrunken log2 fold change” value was found to be 0.0414. Regarding RRIRWRPPRLPRPRPRPYFGPRP, the “shrunken log2 fold change” value is -0.168. With RRIRPRPPRLPRPRPRPFMPPRP, the “shrunken log2 fold change” value was -0.793. With RRIRTRPPRLPRPRPRPFMCPRP the figure was -0.126. For RRIRCRPPRLPRPRPRPFFQPRP, the “shrunken log2 fold change” value is -0.152. With RRIRNRPPRLPRPRPRPMEQPRP, the “shrunken log2 fold change” value was -0.208. On to RRIRGRPPRLPRPRPRPQGLPRP, for which the “shrunken log2 fold change” value was 0.335. Regarding RRIRTRPPRLPRPRPRPPRKPRP, the “shrunken log2 fold change” value was 0.25. With RRIRHRPPRLPRPRPRPAMFPRP, the “shrunken log2 fold change” value came to 0.0207. As for RRIRCRPPRLPRPRPRPWCHPRP, the “shrunken log2 fold change” value is -0.463.

As for RRIRKRPPRLPRPRPRPFLMPRP, the “shrunken log2 fold change” value is 0.043. RRIRQRPPRLPRPRPRPWQWPRP: the “shrunken log2 fold change” value was -0.133. As to RRIRQRPPRLPRPRPRPITWPRP, the “shrunken log2 fold change” value came to 0.129. Turning to RRIRQRPPRLPRPRPRPWWIPRP, the “shrunken log2 fold change” value is -0.185. In the case of RRIRGRPPRLPRPRPRPPPQPRP, the “shrunken log2 fold change” value amounted to 1.55. With RRIRARPPRLPRPRPRPINRPRP the figure was 0.0108; with RRIRDRPPRLPRPRPRPTNPPRP, -0.417; with RRIRIRPPRLPRPRPRPREAPRP, 0.0165. RRIRWRPPRLPRPRPRPAVGPRP: the “shrunken log2 fold change” value was determined as 0.229. With RRIRSRPPRLPRPRPRPPHCPRP, the “shrunken log2 fold change” value was 0.105. On to RRIRSRPPRLPRPRPRPEPKPRP, for which the “shrunken log2 fold change” value was 0.954. As for RRIRSRPPRLPRPRPRPTRNPRP, the “shrunken log2 fold change” value is 0.29. RRIRPRPPRLPRPRPRPMSTPRP: the “shrunken log2 fold change” value is -0.229. With RRIRVRPPRLPRPRPRPTWTPRP the figure was 0.221; with RRIRARPPRLPRPRPRPCYEPRP, -0.109; with RRIRLRPPRLPRPRPRPYVKPRP, -0.182. RRIRPRPPRLPRPRPRPYGLPRP: the “shrunken log2 fold change” value is -0.857. Regarding RRIRWRPPRLPRPRPRPWQVPRP, the “shrunken log2 fold change” value is 0.172. On to RRIRHRPPRLPRPRPRPAMNPRP, for which the “shrunken log2 fold change” value is -0.0974. For the sequence RRIRARPPRLPRPRPRPKDCPRP, the “shrunken log2 fold change” value is 0.181.

For the sequence RRIRMRPPRLPRPRPRPHFQPRP, the “shrunken log2 fold change” value came to 0.22.

As to RRIRMRPPRLPRPRPRPIPYPRP, the “shrunken log2 fold change” value turned out to be 0.013. Turning to RRIRLRPPRLPRPRPRPGCPPRP, the “shrunken log2 fold change” value was 0.0643. In the case of RRIRERPPRLPRPRPRPMFQPRP, the “shrunken log2 fold change” value was -0.952. With RRIRQRPPRLPRPRPRPLEHPRP the figure was -0.109; with RRIRERPPRLPRPRPRPVACPRP, -0.0696; with RRIRMRPPRLPRPRPRPTQKPRP, 0.168. On to RRIRPRPPRLPRPRPRPEGFPRP, for which the “shrunken log2 fold change” value is 0.86. With RRIRARPPRLPRPRPRPSCFPRP the figure was 0.0871; with RRIRWRPPRLPRPRPRPYGCPRP, -0.189; with RRIRDRPPRLPRPRPRPCMQPRP, -0.0524. With RRIRQRPPRLPRPRPRPYDLPRP the figure was -0.0546. As for RRIRDRPPRLPRPRPRPVYVPRP, the “shrunken log2 fold change” value was -0.563. In the case of RRIRTRPPRLPRPRPRPNLWPRP, the “shrunken log2 fold change” value was -0.0774.

Regarding RRIRKRPPRLPRPRPRPMAEPRP, the “shrunken log2 fold change” value was found to be 0.208. For RRIRHRPPRLPRPRPRPYHQPRP, the “shrunken log2 fold change” value is -0.981. As to RRIRWRPPRLPRPRPRPFIAPRP, the “shrunken log2 fold change” value was -0.291. As for RRIRDRPPRLPRPRPRPCFNPRP, the “shrunken log2 fold change” value is -0.134. With RRIRQRPPRLPRPRPRPAIPPRP the figure was 0.0602.

In the case of RRIRFRPPRLPRPRPRPLKSPRP, the “shrunken log2 fold change” value was -0.307. RRIRKRPPRLPRPRPRPDTMPRP: the “shrunken log2 fold change” value stood at 0.224. In the case of RRIRTRPPRLPRPRPRPMGSPRP, the “shrunken log2 fold change” value was -0.0908. On to RRIRTRPPRLPRPRPRPQASPRP, for which the “shrunken log2 fold change” value turned out to be 2.4.

As to RRIRIRPPRLPRPRPRPCWDPRP, the “shrunken log2 fold change” value was -0.0479. As to RRIRCRPPRLPRPRPRPYRRPRP, the “shrunken log2 fold change” value was -0.344. With RRIRMRPPRLPRPRPRPWQRPRP the figure was 0.179; with RRIRARPPRLPRPRPRPAYQPRP, 0.106; with RRIRCRPPRLPRPRPRPKYWPRP, 0.22.

For the sequence RRIRMRPPRLPRPRPRPSRMPRP, the “shrunken log2 fold change” value worked out at 0.454. In the case of RRIRMRPPRLPRPRPRPNRHPRP, the “shrunken log2 fold change” value is 0.0213. Turning to RRIRNRPPRLPRPRPRPSEFPRP, the “shrunken log2 fold change” value was -0.109. For RRIRRRPPRLPRPRPRPEGLPRP, the “shrunken log2 fold change” value was determined as 2.59. With RRIRFRPPRLPRPRPRPMWIPRP the figure was -0.106. For RRIRERPPRLPRPRPRPFDQPRP, the “shrunken log2 fold change” value was -0.0377. For RRIRHRPPRLPRPRPRPMRPPRP, the “shrunken log2 fold change” value was 0.36.

RRIRMRPPRLPRPRPRPQEVPRP: the “shrunken log2 fold change” value worked out at 0.126. In the case of RRIRIRPPRLPRPRPRPVMTPRP, the “shrunken log2 fold change” value is -0.166. With RRIRQRPPRLPRPRPRPTWRPRP the figure was 0.345; with RRIRCRPPRLPRPRPRPSDNPRP, -0.66; with RRIRDRPPRLPRPRPRPRTRPRP, 0.0925. Consider RRIRKRPPRLPRPRPRPGGLPRP, for which the “shrunken log2 fold change” value is 0.0184. As for RRIRRRPPRLPRPRPRPKAWPRP, the “shrunken log2 fold change” value was found to be 0.0767.

Consider RRIRRRPPRLPRPRPRPCFPPRP, for which the “shrunken log2 fold change” value was determined as 0.592. With RRIRVRPPRLPRPRPRPWQFPRP, the “shrunken log2 fold change” value was -0.0175. For the sequence RRIRIRPPRLPRPRPRPLWWPRP, the “shrunken log2 fold change” value turned out to be 0.266. For the sequence RRIRERPPRLPRPRPRPSGYPRP, the “shrunken log2 fold change” value is -0.0887. On to RRIRHRPPRLPRPRPRPDRDPRP, for which the “shrunken log2 fold change” value is -0.0136.
